Measured values: publication PMC4715562

Target: Gp7-MyH7-1526-1571 (bacteriophage φ29 | human)
Assay: crystal structure

Substance Gp7-MyH7-1526-1571 (domain or fragment) has a stoichiometry N of 2.
